Laboratory results: patent publication US20250320281A1

What was measured:
[1] = molecular target: HIV-1 Env of isolate MGRM-AE-006 (subtype AE) (HIV-1); experiment: cell-based or functional assay
[2] = molecular target: HIV-1 envelope glycoprotein (Env) of isolate 93TH305 (HIV-1); experiment: cell-based or functional assay
[3] = molecular target: HIV-1 envelope glycoprotein (Env) of isolate APV_17 (HIV-1); experiment: cell-based or functional assay
[4] = molecular target: HIV-1 envelope glycoprotein (Env) of isolate 6535.3 (HIV-1); experiment: cell-based or functional assay
[5] = molecular target: HIV-1 Env of isolate 92WR020 (subtype A) (HIV-1); experiment: cell-based or functional assay
[6] = molecular target: HIV-1 envelope glycoprotein (Env) of isolate APV_6 (HIV-1); experiment: cell-based or functional assay
[7] = molecular target: HIV-1 Env of isolate 92WR024 (subtype A) (HIV-1); experiment: cell-based or functional assay
[8] = molecular target: HIV-1 Env of isolate 93UG077 (subtype A) (HIV-1); experiment: cell-based or functional assay
[9] = molecular target: HIV-1 envelope glycoprotein (Env) of isolate JR-FL (HIV-1); experiment: cell-based or functional assay
[10] = molecular target: HIV-1 envelope glycoprotein (Env) of isolate MGRM-Chronic-B-003 (HIV-1); experiment: cell-based or functional assay
[11] = molecular target: HIV-1 Env of isolate 93WR029 (subtype A) (HIV-1); experiment: cell-based or functional assay
[12] = molecular target: HIV-1 Env of isolate 92WR009 (subtype A) (HIV-1); experiment: cell-based or functional assay
[13] = molecular target: HIV-1 Env of isolate 92WR021 (subtype A) (HIV-1); experiment: cell-based or functional assay
[14] = molecular target: HIV-1 envelope glycoprotein (Env) of isolate APV_13 (HIV-1); experiment: cell-based or functional assay
[15] = molecular target: HIV-1 Env of isolate 92UG031 (subtype A) (HIV-1); experiment: cell-based or functional assay
[16] = molecular target: HIV-1 Env of isolate 94 KE 105 (subtype AC) (HIV-1); experiment: cell-based or functional assay
[17] = molecular target: HIV-1 Env of isolate 92WR026 (subtype A) (HIV-1); experiment: cell-based or functional assay
[18] = molecular target: HIV-1 envelope glycoprotein (Env) of isolate MGRM-Chronic-B-008 (HIV-1); experiment: cell-based or functional assay
[19] = molecular target: HIV-1 envelope glycoprotein (Env) of isolate 92BR020 (HIV-1); experiment: cell-based or functional assay
[20] = molecular target: HIV-1 Env of isolate 92UG037 (subtype A) (HIV-1); experiment: cell-based or functional assay
[21] = molecular target: HIV-1 Env of pseudovirus 92TH021 (clade CRF01_AE) (HIV-1); experiment: cell-based or functional assay
[22] = molecular target: HIV-1 Env of pseudovirus MGRM-F1-013 (HIV-1); experiment: cell-based or functional assay
[23] = molecular target: HIV-1 envelope glycoprotein (Env) of isolate MGRM-A-002, clade A (HIV-1); experiment: cell-based or functional assay
[24] = molecular target: HIV-1 APV-17 envelope glycoprotein (Env) on pseudovirus (HIV-1); experiment: cell-based or functional assay
[25] = molecular target: HIV-1 92TH021 envelope glycoprotein (Env) on pseudovirus (HIV-1); experiment: cell-based or functional assay
[26] = molecular target: HIV-1 Env of pseudovirus MGRM-AG-012 (clade CRF_AG) (HIV-1); experiment: cell-based or functional assay
[27] = molecular target: HIV-1 IAVI-C22 envelope glycoprotein (Env) on pseudovirus (HIV-1); experiment: cell-based or functional assay
[28] = molecular target: HIV-1 Env of isolate 92RW008 (HIV-1); experiment: cell-based or functional assay
[29] = molecular target: HIV-1 Env of isolate MGRM-AG-008 (subtype AG) (HIV-1); experiment: cell-based or functional assay
[30] = molecular target: HIV-1 94UG103 Env on pseudotyped virus (HIV-1 isolate 94UG103); experiment: cell-based or functional assay
[31] = molecular target: HIV-1 NL43 Env on pseudotyped virus (HIV-1 NL43); experiment: cell-based or functional assay
[32] = molecular target: HIV-1 JR-CSF Env on pseudotyped virus (HIV-1 isolate JR-CSF) (UniProt P20871); experiment: cell-based or functional assay
[33] = molecular target: HIV-1 93IN905 Env on pseudotyped virus (HIV-1 isolate 93IN905); experiment: cell-based or functional assay
[34] = molecular target: HIV-1 92TH021 Env on pseudotyped virus (HIV-1 isolate 92TH021); experiment: cell-based or functional assay
[35] = molecular target: JR-FL gp120 ΔV1/ΔV2 (HIV-1); experiment: ELISA, antigen-coated wells

Sequence of 1443_C16 (PG16) (TCN-116) (antibody) (VH): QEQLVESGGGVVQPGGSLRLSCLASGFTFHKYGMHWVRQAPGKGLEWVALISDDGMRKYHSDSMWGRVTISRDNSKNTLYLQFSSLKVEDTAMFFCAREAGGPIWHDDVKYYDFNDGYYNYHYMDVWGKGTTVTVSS
Sequence of 1443_C16 (PG16) (TCN-116) (antibody) (VL): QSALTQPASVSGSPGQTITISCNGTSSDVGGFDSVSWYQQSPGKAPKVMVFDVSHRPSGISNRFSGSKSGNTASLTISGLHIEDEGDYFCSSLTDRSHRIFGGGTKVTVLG
Sequence of 4980_N08 (PGT-143) (antibody) (VH): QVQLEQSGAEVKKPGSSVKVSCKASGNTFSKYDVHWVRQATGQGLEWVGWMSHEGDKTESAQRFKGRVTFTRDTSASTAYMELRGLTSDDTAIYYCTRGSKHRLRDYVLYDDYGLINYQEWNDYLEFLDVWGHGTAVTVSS
Sequence of 4980_N08 (PGT-143) (antibody) (VL): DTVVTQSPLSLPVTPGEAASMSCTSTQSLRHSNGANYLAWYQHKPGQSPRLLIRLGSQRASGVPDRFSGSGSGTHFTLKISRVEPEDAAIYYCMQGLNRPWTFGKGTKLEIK
Sequence of 4970_K22 (PGT-144) (antibody) (VH): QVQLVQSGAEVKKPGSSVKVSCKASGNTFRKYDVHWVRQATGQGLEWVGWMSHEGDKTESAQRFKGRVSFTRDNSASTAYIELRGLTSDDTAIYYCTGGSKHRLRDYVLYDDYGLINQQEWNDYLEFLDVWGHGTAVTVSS
Sequence of 4970_K22 (PGT-144) (antibody) (VL): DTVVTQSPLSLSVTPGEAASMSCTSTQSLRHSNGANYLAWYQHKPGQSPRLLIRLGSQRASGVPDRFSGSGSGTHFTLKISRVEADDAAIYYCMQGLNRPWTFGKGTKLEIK

Row | Substance | IC50 (µg/mL), pseudovirus neutralization [1] | IC50 (µg/mL), pseudovirus neutralization [2] | IC50 (µg/mL), pseudovirus neutralization [3] | IC50 (µg/mL), pseudovirus neutralization [4] | IC50 (µg/mL), pseudovirus neutralization [5] | IC50 (µg/mL), pseudovirus neutralization [6] | IC50 (µg/mL), pseudovirus neutralization [7] | IC50 (µg/mL), pseudovirus neutralization [8] | IC50 (µg/mL), pseudovirus neutralization [9] | IC50 (µg/mL), pseudovirus neutralization [10] | IC50 (µg/mL), pseudovirus neutralization [11] | IC50 (µg/mL), pseudovirus neutralization [12] | IC50 (µg/mL), pseudovirus neutralization [13] | IC50 (µg/mL), pseudovirus neutralization [14] | IC50 (µg/mL), pseudovirus neutralization [15] | IC50 (µg/mL), pseudovirus neutralization [16] | IC50 (µg/mL), pseudovirus neutralization [18] | IC50 (µg/mL), pseudovirus neutralization [19] | IC50 (µg/mL), pseudovirus neutralization [20] | IC50 [21] | further results
1 | 4980_N08 (PGT-143) (antibody) | > 50 µg/mL | 17.3 µg/mL | 1.11 µg/mL | > 50 µg/mL | > 50 µg/mL | 14 µg/mL | 0.122 µg/mL | > 50 µg/mL | > 50 µg/mL | 0.854 µg/mL | 0.053 µg/mL | 0.01 µg/mL | > 50 µg/mL | > 50 µg/mL | 0.095 µg/mL | 0.368 µg/mL | > 50 µg/mL | 25.9 µg/mL | 0.854 µg/mL |  | IC50 (µg/mL), pseudovirus neutralization [17]: 5.36 µg/mL
2 | 4970_K22 (PGT-144) (antibody) | > 50 µg/mL | > 50 µg/mL | 10.3 µg/mL | > 50 µg/mL | > 50 µg/mL | > 50 µg/mL | 16.3 µg/mL | > 50 µg/mL | > 50 µg/mL | 7.41 µg/mL | 4.39 µg/mL | 0.893 µg/mL | > 50 µg/mL | > 50 µg/mL | 2.17 µg/mL | 0.29 µg/mL | > 50 µg/mL | 44 µg/mL | 8.24 µg/mL |  | IC50 (µg/mL), pseudovirus neutralization [17]: 32.7 µg/mL
3 | 2G12 (antibody) |  |  |  |  |  |  |  |  |  |  |  |  |  |  |  |  |  |  |  | > 50 µg/mL | IC50 (µg/ml), pseudovirus neutralization [22]: > 50 µg/mL; IC50 (µg/ml), pseudovirus neutralization [23]: > 50 µg/mL; IC50, pseudovirus neutralization [24]: > 50 µg/mL; IC50, pseudovirus neutralization [25]: > 50 µg/mL; IC50 [26]: 1.94 µg/mL; IC50, pseudovirus neutralization [27]: > 50 µg/mL
4 | 5136_H01 (PGT-131) (antibody) | 0.026 µg/mL |  |  |  |  |  |  |  |  |  |  |  |  |  |  |  |  |  |  |  | IC50 [28]: 1.01 µg/mL; IC50 (µg/mL), pseudovirus neutralization [29]: > 50 µg/mL
5 | 1496_C09 (PG9) (TCN-109) (antibody) |  |  |  |  |  |  |  |  |  |  |  |  |  |  |  |  |  |  |  | 0.09 µg/mL | Neutralizing Antibody Assay: IC50; Virus/Ab Incubation 1 hour [30]: 0.334 µg/mL; Neutralizing Antibody Assay: IC50; Virus/Ab Incubation 18 hour [30]: 0.0942 µg/mL; IC50 (µg/ml), pseudovirus neutralization [22]: 0.56 µg/mL; Neutralizing Antibody Assay: IC50; Virus/Ab Incubation 1 hour [31]: 0.294 µg/mL; Neutralizing Antibody Assay: IC50; Virus/Ab Incubation 18 hour [31]: 38 µg/mL; IC50, pseudovirus neutralization [24]: 26.4 µg/mL; IC50, pseudovirus neutralization [25]: 0.111 µg/mL; Neutralizing Antibody Assay: IC50; Virus/Ab Incubation 1 hour [32]: < 0.0025 µg/mL; Neutralizing Antibody Assay: IC50; Virus/Ab Incubation 18 hour [32]: < 0.0025 µg/mL; Neutralizing Antibody Assay: IC50; Virus/Ab Incubation 1 hour [33]: 0.144 µg/mL; Neutralizing Antibody Assay: IC50; Virus/Ab Incubation 18 hour [33]: 0.0619 µg/mL; IC50 [26]: 1.37 µg/mL; IC50, pseudovirus neutralization [27]: 24.9 µg/mL; Neutralizing Antibody Assay: IC50; Virus/Ab Incubation 1 hour [34]: 0.0612 µg/mL; Neutralizing Antibody Assay: IC50; Virus/Ab Incubation 18 hour [34]: 0.0571 µg/mL
6 | 5147_N06 (PGT-130) (antibody) | 0.009 µg/mL |  |  |  |  |  |  |  |  |  |  |  |  |  |  |  |  |  |  |  | IC50 [28]: 0.089 µg/mL; IC50 (µg/mL), pseudovirus neutralization [29]: > 50 µg/mL
7 | VRC01 (antibody) | 4.65 µg/mL | 0.243 µg/mL | 0.477 µg/mL | 1.75 µg/mL | 0.13 µg/mL | 1.81 µg/mL | 0.327 µg/mL | 0.097 µg/mL | 0.034 µg/mL | 0.1 µg/mL | 1.57 µg/mL | 0.187 µg/mL | 0.066 µg/mL | 0.657 µg/mL | 0.469 µg/mL | 0.499 µg/mL | 0.155 µg/mL | 0.29 µg/mL | 0.245 µg/mL |  | 
8 | 1443_C16 (PG16) (TCN-116) (antibody) |  |  |  |  |  |  |  |  |  |  |  |  |  |  |  |  |  |  |  | 0.1 µg/mL | Neutralizing Antibody Assay: IC50; Virus/Ab Incubation 1 hour [30]: 0.0211 µg/mL; Neutralizing Antibody Assay: IC50; Virus/Ab Incubation 18 hour [30]: 0.0085 µg/mL; IC50 (µg/ml), pseudovirus neutralization [23]: 0.004 µg/mL; Neutralizing Antibody Assay: IC50; Virus/Ab Incubation 1 hour [31]: < 0.0025 µg/mL; Neutralizing Antibody Assay: IC50; Virus/Ab Incubation 18 hour [31]: 4.99 µg/mL; IC50, pseudovirus neutralization [24]: > 50 µg/mL; IC50, pseudovirus neutralization [25]: 0.127 µg/mL; Neutralizing Antibody Assay: IC50; Virus/Ab Incubation 1 hour [32]: < 0.0025 µg/mL; Neutralizing Antibody Assay: IC50; Virus/Ab Incubation 18 hour [32]: < 0.0025 µg/mL; Neutralizing Antibody Assay: IC50; Virus/Ab Incubation 1 hour [33]: 0.33 µg/mL; Neutralizing Antibody Assay: IC50; Virus/Ab Incubation 18 hour [33]: 0.255 µg/mL; IC50 [26]: 25.1 µg/mL; IC50, pseudovirus neutralization [27]: 0.0687 µg/mL; Neutralizing Antibody Assay: IC50; Virus/Ab Incubation 1 hour [34]: 0.136 µg/mL; Neutralizing Antibody Assay: IC50; Virus/Ab Incubation 18 hour [34]: 0.0435 µg/mL
9 | 5114_A19 (PGT-128) (antibody) | 0.044 µg/mL |  |  |  |  |  |  |  |  |  |  |  |  |  |  |  |  |  |  |  | IC50 [28]: 0.003 µg/mL; IC50 (µg/mL), pseudovirus neutralization [29]: 0.668 µg/mL; EC50 [35]: 0.3 µg/mL
